Measured values: article doi:10.1101/393223, “Structures of the substrate-engaged 26S proteasome reveal the mechanisms for ATP hydrolysis-driven translocation” (bioRxiv, 2018)

Target: T1, Rpn11 (3XFLAG-tagged, in the 26S proteasome) (S. cerevisiae, UniProt P43588 1-306)
T1 construct: Rpn11, Zn2+-dependent deubiquitinase of the lid, S. cerevisiae; strain YYS40 RPN11::RPN11-3XFLAG; the catalytic Zn2+ is not visible in the structure; also called Rpn11 deubiquitinase; source: purified from S. cerevisiae strain YYS40 as part of the 26S proteasome (anti-FLAG, SEC)
Experiment: cryo-EM structure; 26S proteasome (20 μM; 20 mM HEPES pH 7.6, 25 mM NaCl, 25 mM KCl, 10 mM MgCl2, 1 mM TCEP, 5 mM ATP, 0.05% NP-40, ATP regeneration system, 6 mM ortho-phenanthroline) mixed with an equal volume of 50 μM ubiquitinated model substrate and vitrified at once; single-particle analysis gave four substrate-engaged states (1D*, 5D, 5T, 4D)
Conditions: both partners purified

binding result: binds
B1: ubiquitin (S. cerevisiae), the most proximal, substrate-attached moiety of the poly-ubiquitin chain (natural protein)
chain: not shown
modifications: C-terminus in an isopeptide bond with the substrate lysine; part of a K63-linked ubiquitin chain
notes: ubiquitin, S. cerevisiae; cut product of the ubiquitin precursors; Modeled at the Rpn11 active site in the 4D state with PDB 5U4P as template; also called ubiquitin moiety
